We go through one substance from US20110110981A1.

The target of the test is purified IgG1. The test is described as follows: ELISA on dilutions of purified isotype standards. (In general: In an ELISA, binding on a coated surface is turned into a signal by an enzyme label.)

In turn, “anti-mouse IgG1 secondary antibody (tool reagent)” came in with a greater affinity than the IgG2a antibody pair of 40%.
